Reference: US20250243281A1 (IMMUNITAS THERAPEUTICS, published 2025)

T1: hCLEC2D (human, UniProt Q9UHP7 1-191)
T1 construct: Overexpressed on HEK293 or K562 cells; the same id is used for endogenous CLEC2D on NALM6 and Raji cells; also called LLT1
T1 sequence: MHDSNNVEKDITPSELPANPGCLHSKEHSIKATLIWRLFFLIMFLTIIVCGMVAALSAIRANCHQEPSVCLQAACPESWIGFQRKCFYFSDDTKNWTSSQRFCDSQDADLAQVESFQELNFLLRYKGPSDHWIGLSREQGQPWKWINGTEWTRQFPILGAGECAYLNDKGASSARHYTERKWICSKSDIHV

T2: hKLRF1 (human, UniProt Q9NZS2 1-231)
T2 construct: Overexpressed on HEK293 cells
T2 sequence: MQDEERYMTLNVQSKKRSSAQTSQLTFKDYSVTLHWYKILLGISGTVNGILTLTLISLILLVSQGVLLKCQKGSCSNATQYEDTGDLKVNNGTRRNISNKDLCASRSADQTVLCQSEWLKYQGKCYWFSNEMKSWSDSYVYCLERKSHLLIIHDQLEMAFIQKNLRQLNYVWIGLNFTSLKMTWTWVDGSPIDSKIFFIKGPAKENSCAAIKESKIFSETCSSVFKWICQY

T3: hKLRF2 (human, UniProt D3W0D1 1-207)
T3 construct: Overexpressed on HEK293 cells
T3 sequence: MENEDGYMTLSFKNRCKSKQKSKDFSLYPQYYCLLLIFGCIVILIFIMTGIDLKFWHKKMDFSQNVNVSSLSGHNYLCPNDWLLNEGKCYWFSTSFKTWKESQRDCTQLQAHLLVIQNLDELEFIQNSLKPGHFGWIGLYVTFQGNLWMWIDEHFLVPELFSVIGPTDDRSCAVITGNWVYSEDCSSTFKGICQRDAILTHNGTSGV

T4: hCLEC12B (human, UniProt Q2HXU8 1-276)
T4 construct: Overexpressed on HEK293 cells
T4 sequence: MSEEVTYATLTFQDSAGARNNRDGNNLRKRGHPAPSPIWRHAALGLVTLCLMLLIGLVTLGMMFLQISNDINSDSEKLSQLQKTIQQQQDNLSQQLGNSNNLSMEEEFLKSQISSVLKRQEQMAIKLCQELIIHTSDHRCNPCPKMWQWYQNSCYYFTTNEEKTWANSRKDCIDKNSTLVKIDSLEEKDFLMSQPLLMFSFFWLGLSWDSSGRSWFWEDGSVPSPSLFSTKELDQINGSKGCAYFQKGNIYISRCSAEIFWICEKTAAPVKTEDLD


Key:
human HSP70 = target: T5, human HSP70 (human, UniProt P0DMV8 1-641); assay: polyspecificity ELISA, coated HSP70, 100 nM antibody
T5 construct: polyspecificity reagent

hCLEC2D [1] = target: T1, hCLEC2D; assay: flow cytometry, HEK293 transfectants, 100 nM antibody;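 further: antibody applied at a saturating level and incubated with cells for 30 min at room temperature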
Method: (§1) For the antibody binding assay, all cell lines were washed in phosphate-buffered saline with 0.1% bovine serum albumin (PBSA) and seeded in a 96 well plate at a density of 4×10⁴ cells per well. Washed cells were resuspended in 100 nM of antibody (a saturating concentration to measure maximum binding on cells) and incubated at room temperature for 30 minutes. […] Cells were analyzed by flow cytometry with a Thermo Fisher Attune flow cytometer.
(§2) Data were analyzed using FlowJo software. MFI for each sample was calculated and exported into Graphpad Prism.

hKLRF1 [2] = target: T2, hKLRF1; assay: as above
Method: as §1, §2

hKLRF2 [3] = target: T3, hKLRF2; assay: as above
Method: as §1, §2

hCLEC12B [4] = target: T4, hCLEC12B; assay: as above
Method: as §1, §2

hKLRF1 [5] = target: T2, hKLRF1; assay: flow cytometry; 100 nM antibody on HEK293 cells expressing KLRF1; Alexa Fluor 647 anti-human IgG; MFI
Method: as §1, §2

hKLRF2 [6] = target: T3, hKLRF2; assay: flow cytometry; 100 nM antibody on HEK293 cells expressing KLRF2; Alexa Fluor 647 anti-human IgG; MFI
Method: as §1, §2

hCLEC2D [7] = target: T1, hCLEC2D; assay: flow cytometry; 100 nM antibody on HEK293 cells expressing CLEC2D; Alexa Fluor 647 anti-human IgG; MFI
Method: as §1, §2

hCLEC12B [8] = target: T4, hCLEC12B; assay: flow cytometry; 100 nM antibody on HEK293 cells expressing CLEC12B; Alexa Fluor 647 anti-human IgG; MFI
Method: as §1, §2

T5 sequence (P0DMV8 whole entry): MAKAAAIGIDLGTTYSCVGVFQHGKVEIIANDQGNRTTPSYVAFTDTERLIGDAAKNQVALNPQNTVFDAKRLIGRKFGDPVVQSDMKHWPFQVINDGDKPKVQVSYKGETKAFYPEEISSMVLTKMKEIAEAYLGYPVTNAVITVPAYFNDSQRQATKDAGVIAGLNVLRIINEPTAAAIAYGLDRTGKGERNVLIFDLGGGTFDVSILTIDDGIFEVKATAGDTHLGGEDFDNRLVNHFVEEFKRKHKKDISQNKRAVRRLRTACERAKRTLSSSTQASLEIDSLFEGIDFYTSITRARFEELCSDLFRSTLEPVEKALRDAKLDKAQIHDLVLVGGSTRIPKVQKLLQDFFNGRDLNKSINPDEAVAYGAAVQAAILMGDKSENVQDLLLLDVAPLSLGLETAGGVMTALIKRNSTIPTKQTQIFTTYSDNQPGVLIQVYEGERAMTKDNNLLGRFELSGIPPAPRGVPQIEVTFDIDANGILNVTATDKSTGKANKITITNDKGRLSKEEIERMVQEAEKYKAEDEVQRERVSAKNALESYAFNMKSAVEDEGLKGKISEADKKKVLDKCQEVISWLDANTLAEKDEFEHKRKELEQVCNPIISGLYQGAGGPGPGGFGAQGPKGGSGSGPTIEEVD

| Norm (signal over AdalimumAb) (human HSP70) [fold] | % of CD161 binding (hCLEC2D [1]) [%] | % of CD161 binding (hKLRF1 [2]) [%] | % of CD161 binding (hKLRF2 [3]) [%] | % of CD161 binding (hCLEC12B [4]) [%] | binding result (hKLRF1 [5]) | binding result (hKLRF2 [6]) | binding result (hCLEC2D [7]) | binding result (hCLEC12B [8]) | Binder |
| --- | --- | --- | --- | --- | --- | --- | --- | --- | --- |
| 3.71 |  |  |  |  |  |  |  |  | Ustekinumab (antibody, V domains shown) VH: EVQLVQSGAEVKKPGESLKISCKGSGYSFTTYWLGWVRQMPGKGLDWIGIMSPVDSDIRYSPSFQGQVTMSVDKSITTAYLQWNSLKASDTAMYYCARRRPGQGYFDFWGQGTLVTVSS VL: DIQMTQSPSSLSASVGDRVTITCRASQGISSWLAWYQQKPEKAPKSLIYAASSLQSGVPSRFSGSGSGTDFTLTISSLQPEDFATYYCQQYNIYPYTFGQGTKLEIK |
|  | 0.846 | 0.031 | 0.038 | 0.049 | no binding (tested: 100 nM) | no binding (tested: 100 nM) | no binding (tested: 100 nM) | no binding (tested: 100 nM) | Ab8 (antibody, human IgG1, V domains shown, IgG purified from yeast culture) VH: EVQLLESGGGLVQPGGSLRLSCAASGFTFGTFAMSWVRQAPGKGLEWVSAISGVGGTTYYADSVKGRFTISRDNSKNTLYLQMNSLRAEDTAVYYCAKPLDSSFWADFDLWGRGTLVTVSS VL: DIQLTQSPSSVSASVGDRVTITCRASQTISSWLAWYQQKPGKAPKLLIYAASSLQSGVPSRFSGSGSGTDFTLTISSLQPEDFATYYCQQQSVLPITFGGGTKVEIK |
|  | 0.808 | 0.042 | 0.028 | 0.025 | no binding (tested: 100 nM) | no binding (tested: 100 nM) | no binding (tested: 100 nM) | no binding (tested: 100 nM) | Ab9 (antibody, human IgG1, V domains shown) VH: EVQLLESGGGLVQPGGSLRLSCAASGFTFSPYAMSWVRQAPGKGLEWVSAISASGGTTYYADSVKGRFTISRDNSKNTLYLQMNSLRAEDTAVYYCAKPLDSSFWADFDLWGRGTLVTVSS VL: DIQLTQSPSSVSASVGDRVTITCRASQGISSWLAWYQQKPGKAPKLLIYAASSLQSGVPSRFSGSGSGTDFTLTISSLQPEDFATYYCQQHSVLPITFGGGTKVEIK |
